B1: ankyrin-G fragment of 26 amino acids (residues 1985-2010) (domain or fragment)
chain: PEDDWTEFSSEEIREARQAAASHAPS

Columns and labels:
[1] = target: GABAA receptor associated protein (GABARAP) (mouse) (UniProt Q9DCD6); test: ITC
[2] = target: GABAA receptor associated protein (GABARAP) (mouse, UniProt Q9DCD6 1-117); test: ITC
Sequence of GABAA receptor associated protein (GABARAP) (Q9DCD6 whole entry): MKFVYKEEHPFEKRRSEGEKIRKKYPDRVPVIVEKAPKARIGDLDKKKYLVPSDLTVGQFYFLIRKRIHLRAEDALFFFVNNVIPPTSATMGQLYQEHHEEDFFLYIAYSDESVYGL

Sequence of GABAA receptor associated protein (GABARAP) (mouse) (Q9DCD6 whole entry): as above

Molecule	Kd [1]	Kd [2]
ankyrin-G W1989R (from UniProt O70511 1985-2010) (domain or fragment)	11 µM	–
B1	–	0.0029 µM

Reference: article PMC6542726 (Molecular psychiatry, 2018)
